This is an account of results in publication PMC3660353.

Where “and” joins values, the source holds several entries; their conditions need not be identical. Identical values can stand only once.

For assay [1], the target named is recombinant, full-length human claudin-1 (human) (UniProt O95832). The experiment in a line: dynamic light scattering; purified proteins in detergent micelles (claudin-1 in foscholine-10, CD81 and CD82 in βOG) mixed at a 1:2 molar ratio, with and without CHEMS, 20 mM MOPS pH 8, 1% βOG, 20°C, followed for 23-36 h.
For assay [2], the target named is recombinant, full-length human CD81 with six putative palmitoylation sites mutated to alanine (human) (UniProt P60033). The experiment in a line: dynamic light scattering; single purified proteins in detergent micelles (claudin-1 in foscholine-10, CD81 in βOG), with and without CHEMS, 20°C; oligomeric state predicted from the hydrodynamic radius.
Assay [3] has as its target T1, recombinant, full-length human claudin-1 (human), O95832.
T1 chain: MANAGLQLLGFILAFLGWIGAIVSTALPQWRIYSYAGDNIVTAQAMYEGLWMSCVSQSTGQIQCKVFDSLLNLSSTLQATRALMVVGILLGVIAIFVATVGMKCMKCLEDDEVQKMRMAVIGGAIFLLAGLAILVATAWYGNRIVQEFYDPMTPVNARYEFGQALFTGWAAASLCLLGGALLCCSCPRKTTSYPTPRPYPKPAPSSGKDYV
The assay is described as follows: reducing SDS-PAGE (Coomassie); proteins solubilised in βOG and eluted from a nickel affinity column. As to conditions: remark: other sources report otherwise.

Assay [4] deals with T1, recombinant, full-length human …. The experiment in a line: non-reducing SDS-PAGE with immunoblot; P. pastoris total membranes, 1 µg protein per well, sample buffer without β-mercaptoethanol, 12% gel, blot with anti-His6. Conditions: remark: other sources report otherwise. A general note: Immunoblotting shows a protein as a band on a membrane.
The target is the same in assay [5]. The experiment in a line: dynamic light scattering; single purified proteins in detergent micelles (claudin-1 in foscholine-10, CD81 in βOG), with and without CHEMS, 20°C; oligomeric state predicted from the hydrodynamic radius. As to conditions: remark: other sources report otherwise.
The target is the same in assay [6]. The experiment in a line: AUC; claudin-1 in βOG micelles; sedimentation velocity, continuous c(s) distribution model (SEDFIT). As to conditions: remark: other sources report otherwise.

“recombinant, full-length human CD81 with six putative palmitoylation sites mutated to alanine (from UniProt P60033 1-236) (natural protein)”: the stoichiometry N in assay [1] and in assay [2] was 2 throughout.

B1: recombinant, full-length human claudin-1, O95832 1-211 (natural protein)
chain: MANAGLQLLGFILAFLGWIGAIVSTALPQWRIYSYAGDNIVTAQAMYEGLWMSCVSQSTGQIQCKVFDSLLNLSSTLQATRALMVVGILLGVIAIFVATVGMKCMKCLEDDEVQKMRMAVIGGAIFLLAGLAILVATAWYGNRIVQEFYDPMTPVNARYEFGQALFTGWAAASLCLLGGALLCCSCPRKTTSYPTPRPYPKPAPSSGKDYV
For B1, the stoichiometry N in assay [3] is 2; in assay [4] it was 2 and 3; in assay [5], 2; in assay [6], 2.

The stoichiometry N is a count of units in the complex or per binding partner.
